Source: paper PMC2848857, “The Crystal Structure of PPIL1 Bound to Cyclosporine A Suggests a Binding Mode for a Linear Epitope of the SKIP Protein” (PLoS ONE, 2010)

Target: T1, GST-PPIL1 fusion protein (human, UniProt Q9Y3C6 1-166)
T1 construct: Peptidyl-prolyl isomerase like 1 (PPIL1), human, full length, cloned from a human cDNA library into pGEX-6P1; also called Recombinant GST-PPIL1; Peptidyl-prolyl isomerase like 1; source: E. coli Rosetta 2, glutathione-sepharose
T1 sequence (looked up): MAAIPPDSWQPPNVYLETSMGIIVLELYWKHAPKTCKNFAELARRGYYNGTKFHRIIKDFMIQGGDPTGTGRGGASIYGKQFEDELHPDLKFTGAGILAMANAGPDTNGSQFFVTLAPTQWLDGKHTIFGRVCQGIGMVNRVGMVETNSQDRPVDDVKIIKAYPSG
Experiment: peptide or protein array; SKIP 20-mer peptides on cellulose membrane; GST-PPIL1 or GST alone at 40 µg/ml in blocking buffer (5% milk powder, 5% saccharose in TBS, pH 8.0), overnight at 4°C; detected with anti-GST antibody and chemiluminescence
Settings: both partners purified

binding result: binds
B1: peptide A12 of the SKIP peptide array (peptide, UniProt Q13573 60-79, looked up)
peptide: DGGAFPEIHVAQYPLDMGRK
notes: The limits fit the twelfth peptide of a scan that starts at residue 49 with a one amino acid offset; source: synthetic peptide, spotted on cellulose membrane
